Molecular target: MART-1 presented by HLA-A*0201 on 624 mel-CIITA cells (human)
Experiment: cell-based or functional assay

IFN-gamma (pg/ml); Donor 1; 624-CIITA: 1480 pg/mL | IFN-gamma (pg/ml); Donor 2; 624-CIITA: 1440 pg/mL
Substance: F5 (anti-MART-1) TCR

Reference: patent publication US20150246959A1
